From patent US11427812B2, “Antimicrobial agents against Staphylococcus aureus” (LYSANDO AG, priority 2016, dated 2022)
Positions count from the first letter of the chain named. Numbers in names are those of the source.

B1: Clone 11: variant of SEQ ID NO: 107 with mutations K17E, H51Q (protein)
chain: MAKTQAEINKRLDAYAEGTVDSPYRVKKATSYDPSFGVMEAGAIDADGYYQAQCQDLITDYVLWLTDNKVRTWGNAKDQIKQSYGTGFKIHENKPSTVPKKGWIAVFTSGSYEQWGHIGIVYDGGNTSTFTILEQNWNGYANKKPTKRVDNYYGLTHFIEIPVKAGTTVKKETAKKSATSHEHSAQWLNNYKKGYGYGPYPLGINGGMHYGVDFFMNIGTPVKAISSGKIVEAGWSNYGGGNQIGLIENDGVHRQWYMHLSKYNVKVGDYVKAGQIIGWSGSTGYSTAPHLHFQRMVNSFSNSTAQDPMPFLKSAGYGKAGGTVTPTPNPGNGYKTNKYGTLYKSESASFTANTDIITRLTGPFRSMPQSGVLRKGLTIKYDEVMKQDGHVWVGYNTNSGKRVYLPVRTWNESTGELGPLWGTIKGSHHHHHHGGSKNK
modifications: Fusion protein comprising CHAP domain of LysK endolysin, M23 endopeptidase domain of lysostaphin, cell wall binding domain of ALE-1, His6-tag and synthetic peptide KNK
B2: SEQ ID NO: 107: fusion protein: CHAP domain of LysK, M23 endopeptidase domain of lysostaphin, CBD of ALE-1 and a further peptide (cathepsin G (77-83) or KNK) (protein)
chain: B1 chain with E17K, Q51H
modifications: Fusion protein comprising CHAP domain of LysK endolysin, M23 endopeptidase domain of lysostaphin, cell wall binding domain of ALE-1, His6-tag and synthetic peptide KNK
B3: Clone 15: variant of SEQ ID NO: 107 with mutations K17E, H51Q, K28N, T86A, G154S (protein)
chain: B1 chain with K28N, T86A, G154S
modifications: Fusion protein comprising CHAP domain of LysK endolysin, M23 endopeptidase domain of lysostaphin, cell wall binding domain of ALE-1, His6-tag and synthetic peptide KNK
B4: SEQ ID NO: 105: fusion protein: CHAP domain of LysK, M23 endopeptidase domain of lysostaphin, CBD of ALE-1 and a further peptide (cathepsin G (77-83) or KNK) (protein)
chain: MAKTQAEINKRLDAYAKGTVDSPYRVKKATSYDPSFGVMEAGAIDADGYYHAQCQDLITDYVLWLTDNKVRTWGNAKDQIKQSYGTGFKIHENKPSTVPKKGWIAVFTSGSYEQWGHIGIVYDGGNTSTFTILEQNWNGYANKKPTKRVDNYYGLTHFIEIPVKAGTTVKKETAKKSATSHEHSAQWLNNYKKGYGYGPYPLGINGGMHYGVDFFMNIGTPVKAISSGKIVEAGWSNYGGGNQIGLIENDGVHRQWYMHLSKYNVKVGDYVKAGQIIGWSGSTGYSTAPHLHFQRMVNSFSNSTAQDPMPFLKSAGYGKAGGTVTPTPNPGNGYKTNKYGTLYKSESASFTANTDIITRLTGPFRSMPQSGVLRKGLTIKYDEVMKQDGHVWVGYNTNSGKRVYLPVRTWNESTGELGPLWGTIKHHHHHHLKHPQYNQR
modifications: Fusion protein comprising CHAP domain of LysK endolysin, M23 endopeptidase domain of lysostaphin, cell wall binding domain of ALE-1, His6-tag and synthetic peptide HPQYNQR

Columns and labels:
S. aureus Sp10 = test: MIC assay over several culture cycles (resistance development); format: cell-based, Staphylococcus aureus
Excerpt: Becker et al. (Sci Rep. 2016 Apr. 28; 6:25063) reported construction of fusion protein L-K with reduced incidence of resistant S. aureus strain development. In an attempt to provide other improved fusion proteins against S. aureus, the inventors generated two fusion proteins, each comprising the CHAP domain of LysK endolysin, the M23 endopeptidase domain of lysostaphin; and the cell wall binding domain (CBD) of ALE-1. In addition, one of the fusion proteins did comprise the cathepsin G (77-83) peptide (SEQ ID NO:94), the other the cationic peptide KNK (SEQ ID NO:38). The resulting fusion proteins (SEQ ID NO:105 and SEQ ID NO: 107) were assayed for antibacterial activity and resistance development. For this purpose MIC (minimal inhibitory concentration) assays (see below) were carried out for several culture cycles.
MIC assay S. aureus Sp10 was grown in (Luria-Bertani) medium and diluted 1:10 in Mueller-Hinton medium. At an optical density OD600 of about 0.6, bacteria were diluted in the same medium 1:10 followed by a 1:500 dilution. Protein buffer (20 mM HEPES, 500 mM NaCl, pH 7.4) and proteins or gentamycin were pipetted into a 96 well plate, using different concentrations of proteins/gentamycin and an end volume of 20 μl. The proteins used were the fusion proteins according to SEQ ID NO:105 and SEQ ID NO: 107. 180 μl of bacterial cells or a medium (Mueller-Hinton) control were given to the 96 well plate and mixed. The plate was incubated for 18-22 hours at 37° C. and the bacterial growth was determined measuring the OD600 values of the wells. The well with the lowest concentration of protein/gentamycin showing the same OD600 value as the medium control was taken as MIC. For the next cycle, the bacterial solution from the sub-MIC well was used. The sub-MIC well is the well in which the next lower concentration to the MIC concentration was tested, i.e. the well with the highest concentration of protein/gentamycin but still OD600 above the medium control. For further cycles of the resistance assay, the bacteria from this sub-MIC well of the previous cycle were taken for the next over-night culture.

[1] = system: Staphylococcus aureus DSM 346; test: Thermal stability assay (standard MIC assay after heat incubation); format: cell-based; details: for MIC: protein 0.3 mg/ml, DSM 346; for thermal stability: in comparison to the unmodified fusion protein
Experimental: In addition, thermal stability was assessed for two of said mutants in comparison to the unmodified fusion protein. The thermal stability assay was carried out with the strain Staphylococcus aureus DSM 346. The proteins were diluted to a concentration of 0.3 mg/ml followed by an incubation for 20 minutes at different temperatures (see table 8 below). A standard MIC assay was carried out after this incubation time.

[2] = cycle 1 (initial MIC), S. aureus Sp10
[3] = cycle 1, fold change over initial MIC (cycle 1)
[4] = cycle 6, fold change over initial MIC (cycle 1)
[5] = cycle 12, fold change over initial MIC (cycle 1)
[6] = after 20 minutes incubation at 44.6° C.
[7] = after 20 minutes incubation at 47.1° C.
[8] = after 20 minutes incubation at 49.7° C.
[9] = after 20 minutes incubation at 52.3° C.
[10] = after 20 minutes incubation at 54.9° C.
[11] = after 20 minutes incubation at 57.4° C.
[12] = after 20 minutes incubation at 60° C.
[13] = after 20 minutes incubation at RT

Molecule | Minimal inhibitory concentration (MIC) (S. aureus Sp10; [2]) | Fold change of MIC (S. aureus Sp10; [3]) | Minimal inhibitory concentration (MIC) (S. aureus Sp10; cycle 6, S. aureus Sp10) | Fold change of MIC (S. aureus Sp10; [4]) | Minimal inhibitory concentration (MIC) (S. aureus Sp10; cycle 12, S. aureus Sp10) | Fold change of MIC (S. aureus Sp10; [5]) | MIC [1, 6] | MIC [1, 7] | MIC [1, 8] | MIC [1, 9] | MIC [1, 10] | MIC [1, 11] | MIC [1, 12] | MIC [1, 13] | thermal stability [1]
gentamycin [reference compound] | 0.8 µg/mL | 1 | 4 µg/mL | 5 | 6 µg/mL | 7.5 | – | – | – | – | – | – | – | – | –
B1 | – | – | – | – | – | – | 6 µg/mL | 10 µg/mL | 10 µg/mL | 16 µg/mL | >30 µg/mL | >30 µg/mL | >30 µg/mL | 4 µg/mL | increased thermal stability
B2 | 4 µg/mL | 1 | 4 µg/mL | 1 | 6 µg/mL | 1.5 | 20 µg/mL | 25 µg/mL | 30 µg/mL | 30 µg/mL | >30 µg/mL | >30 µg/mL | >30 µg/mL | 6 µg/mL | –
B3 | – | – | – | – | – | – | 4 µg/mL | 4 µg/mL | 4 µg/mL | 4 µg/mL | 4 µg/mL | 6 µg/mL | 8 µg/mL | 4 µg/mL | increased thermal stability
B4 | 4 µg/mL | 1 | 4 µg/mL | 1 | 6 µg/mL | 1.5 | – | – | – | – | – | – | – | – | –
